The results in this text go back to doi:10.1101/2024.03.12.584565 (bioRxiv, 2024).

The target of assay [1] is T1, Flag-tagged Pds5b, co-expressed with Nek2aΔMR and Δ86-cyclin A2 (human, UniProt Q9NTI5 1-1447).
T1 sequence: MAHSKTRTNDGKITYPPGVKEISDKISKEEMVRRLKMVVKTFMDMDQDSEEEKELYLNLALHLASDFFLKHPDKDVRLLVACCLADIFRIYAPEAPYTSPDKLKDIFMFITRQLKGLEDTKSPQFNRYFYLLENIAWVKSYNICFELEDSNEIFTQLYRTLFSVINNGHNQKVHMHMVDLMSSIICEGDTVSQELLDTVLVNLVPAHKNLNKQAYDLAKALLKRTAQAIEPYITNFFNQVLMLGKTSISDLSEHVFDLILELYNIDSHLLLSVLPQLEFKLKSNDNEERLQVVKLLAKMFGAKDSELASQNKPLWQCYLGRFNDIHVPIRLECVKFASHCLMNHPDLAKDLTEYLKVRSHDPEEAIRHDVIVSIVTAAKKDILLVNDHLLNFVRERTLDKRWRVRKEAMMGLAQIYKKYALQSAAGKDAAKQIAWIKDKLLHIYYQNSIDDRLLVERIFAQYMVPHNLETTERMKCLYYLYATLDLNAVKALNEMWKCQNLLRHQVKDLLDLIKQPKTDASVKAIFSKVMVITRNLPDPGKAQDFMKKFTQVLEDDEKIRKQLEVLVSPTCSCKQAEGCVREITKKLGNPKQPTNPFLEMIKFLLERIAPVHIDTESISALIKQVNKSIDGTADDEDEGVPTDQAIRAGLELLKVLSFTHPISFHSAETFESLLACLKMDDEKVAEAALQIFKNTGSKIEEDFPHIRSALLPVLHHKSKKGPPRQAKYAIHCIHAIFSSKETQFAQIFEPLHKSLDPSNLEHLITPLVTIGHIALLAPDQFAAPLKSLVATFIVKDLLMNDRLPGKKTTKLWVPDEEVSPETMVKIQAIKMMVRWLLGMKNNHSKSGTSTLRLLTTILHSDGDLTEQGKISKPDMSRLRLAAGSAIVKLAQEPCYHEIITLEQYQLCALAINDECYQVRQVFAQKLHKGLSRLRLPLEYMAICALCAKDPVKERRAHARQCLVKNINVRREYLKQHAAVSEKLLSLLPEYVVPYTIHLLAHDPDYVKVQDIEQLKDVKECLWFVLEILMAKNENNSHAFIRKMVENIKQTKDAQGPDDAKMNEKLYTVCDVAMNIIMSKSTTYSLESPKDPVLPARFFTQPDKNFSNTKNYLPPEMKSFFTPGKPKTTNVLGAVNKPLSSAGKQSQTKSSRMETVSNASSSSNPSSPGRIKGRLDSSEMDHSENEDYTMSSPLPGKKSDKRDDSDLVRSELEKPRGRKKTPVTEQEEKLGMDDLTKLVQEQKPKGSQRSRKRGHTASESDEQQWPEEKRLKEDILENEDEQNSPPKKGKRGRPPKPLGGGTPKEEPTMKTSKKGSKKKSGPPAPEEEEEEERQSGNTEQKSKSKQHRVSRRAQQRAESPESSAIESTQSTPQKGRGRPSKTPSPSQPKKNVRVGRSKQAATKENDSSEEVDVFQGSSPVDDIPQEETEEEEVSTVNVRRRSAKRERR
Put plainly: pull-down.

The target in assay [2] is T2, Flag-tagged Pds5b, co-expressed with Δ86-cyclin A2 (human, UniProt Q9NTI5 1-1447).
T2 sequence: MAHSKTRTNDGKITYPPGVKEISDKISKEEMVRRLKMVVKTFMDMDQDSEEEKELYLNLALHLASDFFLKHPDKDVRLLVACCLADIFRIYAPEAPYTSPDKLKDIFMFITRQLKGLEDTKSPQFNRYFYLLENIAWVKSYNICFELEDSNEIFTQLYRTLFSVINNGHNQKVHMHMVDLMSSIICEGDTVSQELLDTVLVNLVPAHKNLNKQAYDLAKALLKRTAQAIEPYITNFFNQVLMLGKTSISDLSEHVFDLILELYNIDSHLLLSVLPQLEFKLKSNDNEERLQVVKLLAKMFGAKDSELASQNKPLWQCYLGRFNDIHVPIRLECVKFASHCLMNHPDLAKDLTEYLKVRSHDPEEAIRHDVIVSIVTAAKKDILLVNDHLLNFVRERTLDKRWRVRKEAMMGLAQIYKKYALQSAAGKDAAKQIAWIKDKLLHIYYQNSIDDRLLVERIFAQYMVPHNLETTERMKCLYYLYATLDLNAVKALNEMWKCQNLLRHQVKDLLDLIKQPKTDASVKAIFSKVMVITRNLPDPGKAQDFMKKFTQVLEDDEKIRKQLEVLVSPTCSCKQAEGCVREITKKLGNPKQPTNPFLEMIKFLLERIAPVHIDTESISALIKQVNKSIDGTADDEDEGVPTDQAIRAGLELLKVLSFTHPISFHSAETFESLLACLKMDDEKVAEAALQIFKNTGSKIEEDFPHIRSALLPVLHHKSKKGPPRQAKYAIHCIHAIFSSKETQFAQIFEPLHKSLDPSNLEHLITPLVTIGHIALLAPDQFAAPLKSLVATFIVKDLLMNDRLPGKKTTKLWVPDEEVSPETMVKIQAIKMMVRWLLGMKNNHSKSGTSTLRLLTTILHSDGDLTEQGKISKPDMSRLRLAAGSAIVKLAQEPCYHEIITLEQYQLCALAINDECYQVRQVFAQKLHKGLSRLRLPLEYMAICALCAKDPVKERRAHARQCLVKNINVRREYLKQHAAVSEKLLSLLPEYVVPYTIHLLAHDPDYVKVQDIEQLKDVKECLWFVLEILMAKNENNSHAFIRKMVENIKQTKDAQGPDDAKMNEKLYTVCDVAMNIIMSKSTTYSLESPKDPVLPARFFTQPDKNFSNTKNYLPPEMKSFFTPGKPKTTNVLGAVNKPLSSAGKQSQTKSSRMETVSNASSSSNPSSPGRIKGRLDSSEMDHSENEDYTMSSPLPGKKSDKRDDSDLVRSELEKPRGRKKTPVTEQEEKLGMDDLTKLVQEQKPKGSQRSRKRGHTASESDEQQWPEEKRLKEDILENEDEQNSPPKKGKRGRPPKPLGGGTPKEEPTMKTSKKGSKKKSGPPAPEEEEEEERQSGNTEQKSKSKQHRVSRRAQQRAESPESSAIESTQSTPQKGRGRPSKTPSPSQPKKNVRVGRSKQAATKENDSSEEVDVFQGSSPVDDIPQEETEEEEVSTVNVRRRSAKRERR
Put plainly: pull-down.

B1: recombinant human Wapl (natural protein)
chain: MTSRFGKTYSRKGGNGSSKFDEVFSNKRTTLSTKWGETTFMAKLGQKRPNFKPDIQEIPKKPKVEEESTGDPFGFDSDDESLPVSSKNLAQVKCSSYSESSEAAQLEEVTSVLEANSKISHVVVEDTVVSDKCFPLEDTLLGKEKSTNRIVEDDASISSCNKLITSDKVENFHEEHEKNSHHIHKNADDSTKKPNAETTVASEIKETNDTWNSQFGKRPESPSEISPIKGSVRTGLFEWDNDFEDIRSEDCILSLDSDPLLEMKDDDFKNRLENLNEAIEEDIVQSVLRPTNCRTYCRANKTKSSQGASNFDKLMDGTSQALAKANSESSKDGLNQAKKGGVSCGTSFRGTVGRTRDYTVLHPSCLSVCNVTIQDTMERSMDEFTASTPADLGEAGRLRKKADIATSKTTTRFRPSNTKSKKDVKLEFFGFEDHETGGDEGGSGSSNYKIKYFGFDDLSESEDDEDDDCQVERKTSKKRTKTAPSPSLQPPPESNDNSQDSQSGTNNAENLDFTEDLPGVPESVKKPINKQGDKSKENTRKIFSGPKRSPTKAVYNARHWNHPDSEELPGPPVVKPQSVTVRLSSKEPNQKDDGVFKAPAPPSKVIKTVTIPTQPYQDIVTALKCRREDKELYTVVQHVKHFNDVVEFGENQEFTDDIEYLLSGLKSTQPLNTRCLSVISLATKCAMPSFRMHLRAHGMVAMVFKTLDDSQHHQNLSLCTAALMYILSRDRLNMDLDRASLDLMIRLLELEQDASSAKLLNEKDMNKIKEKIRRLCETVHNKHLDLENITTGHLAMETLLSLTSKRAGDWFKEELRLLGGLDHIVDKVKECVDHLSRDEDEEKLVASLWGAERCLRVLESVTVHNPENQSYLIAYKDSQLIVSSAKALQHCEELIQQYNRAEDSICLADSKPLPHQNVTNHVGKAVEDCMRAIIGVLLNLTNDNEWGSTKTGEQDGLIGTALNCVLQVPKYLPQEQRFDIRVLGLGLLINLVEYSARNRHCLVNMETSCSFDSSICSGEGDDSLRIGGQVHAVQALVQLFLERERAAQLAESKTDELIKDAPTTQHDKSGEWQETSGEIQWVSTEKTDGTEEKHKKEEEDEELDLNKALQHAGKHMEDCIVASYTALLLGCLCQESPINVTTVREYLPEGDFSIMTEMLKKFLSFMNLTCAVGTTGQKSISRVIEYLEHC
As for B1, the binding result in assay [1] and in assay [2] was “binds” in each case.
